According to patent US20200392251A1:
Where a chain is given by its changes, count along the chain named. Values belong to the binder of their own block, whether it stands above or below them.

Tests used:
[1] = target: human β-secretase 1 (BACE1), extracellular/catalytic domain (human) (UniProt P56817); assay: FRET peptide inhibition assay; KI=IC50/(S/Km+1)
[2] = target: human β-secretase 1 (BACE1), extracellular/catalytic domain (human) (UniProt P56817); assay: biolayer interferometry; biotinylated protease on streptavidin sensor, Fab in solution
[3] = target: human β-secretase 1 (BACE1), extracellular/catalytic domain (human) (UniProt P56817); assay: enzyme inhibition assay with FRET peptide substrate (M-2420), Fab titrated on BACE1 [panel B1B3]
[4] = target: human β-secretase 1 (BACE1), extracellular/catalytic domain (human) (UniProt P56817); assay: bio-layer interferometry (ForteBio), biotinylated protease on streptavidin biosensor, Fab in solution [panel B1B3]
[5] = target: catalytic domain of MMP-9 (cdMMP-9) (UniProt P14780); assay: bio-layer interferometry
[6] = target: catalytic domain of MMP-9 (cdMMP-9) (UniProt P14780); assay: bio-layer interferometry; reference cdMMP-12 wt
[7] = target: human β-secretase 1 (BACE1), extracellular/catalytic domain (human) (UniProt P56817); assay: enzyme inhibition assay with FRET peptide substrate (M-2420), Fab titrated on BACE1 [panel B2B2]
[8] = target: human β-secretase 1 (BACE1), extracellular/catalytic domain (human) (UniProt P56817); assay: bio-layer interferometry (ForteBio), biotinylated protease on streptavidin biosensor, Fab in solution [panel B2B2]
[9] = target: human β-secretase 1 (BACE1), extracellular/catalytic domain (human) (UniProt P56817); assay: enzyme inhibition assay with FRET peptide substrate (M-2420), Fab titrated on BACE1 [panel B2B3]
[10] = target: human β-secretase 1 (BACE1), extracellular/catalytic domain (human) (UniProt P56817); assay: bio-layer interferometry (ForteBio), biotinylated protease on streptavidin biosensor, Fab in solution [panel B2B3]
[11] = target: human β-secretase 1 (BACE1), extracellular/catalytic domain (human) (UniProt P56817); assay: enzyme inhibition assay with FRET peptide substrate (M-2420), Fab titrated on BACE1 [panel B1A4]
[12] = target: human β-secretase 1 (BACE1), extracellular/catalytic domain (human) (UniProt P56817); assay: bio-layer interferometry (ForteBio), biotinylated protease on streptavidin biosensor, Fab in solution [panel B1A4]
[13] = target: catalytic domain of MMP-9 (cdMMP-9) (UniProt P14780); assay: FRET peptide inhibition assay
[14] = target: catalytic domain of MMP-9 (cdMMP-9) (UniProt P14780); assay: FRET peptide inhibition assay; reference cdMMP-12 mutant D4
[15] = target: human β-secretase 1 (BACE1), extracellular/catalytic domain (human) (UniProt P56817); assay: biolayer interferometry; IgG on protein A sensor, protease in solution
[16] = target: human β-secretase 1 (BACE1), extracellular/catalytic domain (human) (UniProt P56817); assay: enzyme inhibition assay with FRET peptide substrate, IgG titrated on BACE1 [panel A]
[17] = target: human β-secretase 1 (BACE1), extracellular/catalytic domain (human) (UniProt P56817); assay: enzyme inhibition assay with FRET peptide substrate (M-2420), Fab titrated on BACE1 [panel B2B5]
[18] = target: human β-secretase 1 (BACE1), extracellular/catalytic domain (human) (UniProt P56817); assay: bio-layer interferometry (ForteBio), biotinylated protease on streptavidin biosensor, Fab in solution [panel B2B5]

Chain of human β-secretase 1 (BACE1), extracellular/catalytic domain (human) (P56817 46-457 limits assumed, form in doubt): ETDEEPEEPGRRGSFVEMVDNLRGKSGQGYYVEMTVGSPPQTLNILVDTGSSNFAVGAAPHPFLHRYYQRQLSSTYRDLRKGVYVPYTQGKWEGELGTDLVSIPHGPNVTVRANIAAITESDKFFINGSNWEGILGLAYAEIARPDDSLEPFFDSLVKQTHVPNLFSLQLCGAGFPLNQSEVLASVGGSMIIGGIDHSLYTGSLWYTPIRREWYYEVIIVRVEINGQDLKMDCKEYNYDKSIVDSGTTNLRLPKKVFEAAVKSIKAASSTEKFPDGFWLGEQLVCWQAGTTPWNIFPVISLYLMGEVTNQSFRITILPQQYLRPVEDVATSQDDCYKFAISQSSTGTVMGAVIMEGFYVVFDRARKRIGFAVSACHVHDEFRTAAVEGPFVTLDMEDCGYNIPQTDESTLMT

Kd [5]: 720 nM
fold (KD compared with cdMMP-12 wt) [6]: 10 fold
B2: anti-MMP-12 Fab LG4 (Fab, V domains shown)
VH: EVQLVESGGGLVQPGGSLRLSCAASGFNLYYSYMHWVRQAPGKGLEWVASISSYYGYTSYADSVKGRFTISADTSKNTAYLQMNSLRAEDTAVYYCARSPIVYYELFMFIDMGAQGWKYGMDYWGQGTLVTVSS
VL: DIQMTQSPSSLSASVGDRVTITCRASQSVSSAVAWYQQKPGKAPKLLIYSASSLYSGVPSRFSGSRSGTDFTLTISSLQPEDFATYYCQQTFYPFTFGQGTKVEIKR

Ki [1]: 100 nM
Kd [2]: 100 nM
IC50 [9]: 130 nM
koff [10]: 0.0097 s⁻¹
kon [10]: 93000 M⁻¹ s⁻¹
B4: anti-BACE1 Fab B2B3 (Fab, V domains shown)
VH: EVQLVESGGGLVQPGGSLRLSCAASGFNISYSSIHWVRQAPGKGLEWVAYISSYSSSTYYADSVKGRFTISADTSKNTAYLQMNSLRAEDTAVYYCARSASGIDYWGQGTLVTVSS
VL: DIQMTQSPSSLSASVGDRVTITCRASQSVSSAVAWYQQKPGKAPKLLIYSASSLYSGVPSRFSGSRSGTDFTLTISSLQPEDFATYYCQQSGYAPFTFGQGTKVEIKR

Ki [1]: 41 nM
Kd [2]: 21 nM
IC50 [11]: 52 nM
koff [12]: 0.0086 s⁻¹
kon [12]: 420000 M⁻¹ s⁻¹
B5: anti-BACE1 Fab B1A4 (Fab, V domains shown)
VH: EVQLVESGGGLVQPGGSLRLSCAASGFNISYSSIHWVRQAPGKGLEWVAYISPSSSYTSYADSVKGRFTISADTSKNTAYLQMNSLRAEDTAVYYCARHYYVSVGSGIDYWGQGTLVTVSS
VL: DIQMTQSPSSLSASVGDRVTITCRASQSVSSAVAWYQQKPGKAPKLLIYSASSLYSGVPSRFSGSRSGTDFTPTISSLQPEDFATYYCQQASASPYALITFGQGTKVEIKR

Ki [1]: 77 nM
Kd [2]: 130 nM
IC50 [17]: 97 nM
koff [18]: 0.024 s⁻¹
kon [18]: 180000 M⁻¹ s⁻¹
B8: anti-BACE1 Fab B2B5 (Fab, V domains shown)
VH: EVQLVESGGGLVQPGGSLRLSCAASGFNIYYSYMHWVRQAPGKGLEWVASIYPYYGSTYYADSVKGRFTISADTSKNTAYLQMNSLRAEDTAVYYCARWHGYPPGYSYYSSFSSSGFDYWGQGTLVTVSS
VL: DIQMTQSPSSLSASVGDRVTITCRASQSVSSAVAWYQQKPGKAPKLLIYSASSLYSGVPSRFSGSRSGTDFTPTISSLQPEDFATYYCQQSYFSYPITFGQGTKVEIKR

Kd [5]: 740 nM
Ki [13]: 6200 nM
fold (KD compared with cdMMP-12 wt) [6]: 9.9 fold
fold (KI compared with cdMMP-12 mutant D4) [14]: 83 fold
B9: anti-MMP-12 Fab LH11 (Fab, V domains shown)
VH: EVQLVESGGGLVQPGGSLRLSCAASGFNLSYYSMHWVRQAPGKGLEWVAYIYPYYGSTYYADSVKGRFTISADTSKNTAYLQMNSLRAEDTAVYYCARFLLSIGKLFVGDGSILHVWL
VL: B8 VL with P73L, S91A, F93Y, S94G, P96L, I97F

Second part, the binder before the results:

B1: anti-BACE1 Fab B1B3 (Fab, V domains shown)
VH: EVQLVESGGGLVQPGGSLRLSCAASGFNISYYSMHWVRQAPGKGLEWVASISPYYGSTYYADSVKGRFTISADTSKNTAYLQMNSLRAEDTAVYYCARERSSCPVGWRDSRFGADGYGLEYWGQGTLVTVSS
VL: DIQMTQSPSSLSASVGDRVTITCRASQSVSSAVAWYQQKPGKAPKLLIYSASSLYSGVPSRFSGSRSGTDFTLTISSLQPEDFATYYCQQSGHYHSLITFGQGTKVEIKR
Ki [1]: 210 nM
Kd [2]: 31 nM
IC50 [3]: 270 nM
koff [4]: 0.013 s⁻¹
kon [4]: 410000 M⁻¹ s⁻¹

B3: anti-BACE1 Fab B2B2 (Fab, V domains shown)
VH: EVQLVESGGGLVQPGGSLRLSCAASGFNISSYYMHWVRQAPGKGLEWVASIYSSYGYTYYADSVKGRFTISADTSKNTAYLQMNSLRAEDTAVYYCARYWGYYAWFGSHPWAYGAFDYWGQGTLVTVSS
VL: B4 VL with S91Y, A94Y, P95L, F96I
Ki [1]: 87 nM
Kd [2]: 52 nM
IC50 [7]: 110 nM
koff [8]: 0.0091 s⁻¹
kon [8]: 180000 M⁻¹ s⁻¹

B6: anti-MMP-12 Fab LH6 (Fab, V domains shown)
VH: EVQLVESGGGLVQPGGSLRLSCAASGFNLSYSYMHWVRQAPGKGLEWVASIYPSYGSTYYADSVKGRFTISADTSKNTAYLQMNSLRAEDTAVYYCARDLEESLPKRARTAVSKELESVPYVMDYWGQGTLVTVSS
VL: B5 VL with P73L, A91S, A93H, S94Y, P95A, Y96S, A97P, L98P
Kd [5]: 950 nM
Ki [13]: 1500 nM
fold (KD compared with cdMMP-12 wt) [6]: 2.2 fold
fold (KI compared with cdMMP-12 mutant D4) [14]: 16 fold

B7: anti-BACE1 IgG B1A4 (antibody, V domains shown)
VH: B5 VH
VL: B5 VL
Ki [1]: 35 nM
Kd [15]: 16 nM
IC50 [16]: 45 nM
